Assay results from the supplement of paper PMC7877785.
± gives the uncertainty stated by the source.

Experiment: self-splicing fitness, log relative to wild type (ln ratio); higher = more splicing; Tetrahymena group I intron in knt gene, E. coli kanamycin selection, DiMSum; sequences stand for … in CUCUCU…GGAGGGAAAAGUUAUCAGGCAUGCACCUGGUAGCUAGUCUUUAAACCAAUAGAUUGCAUCGGUUUAAAAGGCAAGACCGUCAAAUUGCGGGAAAGGGGUCAACAGCCGUUCAGUACCAAGUCUCAGGGGAAACUUUGAGAUGGCCUUGCAAAGGGUAUGGUAAUAAGCUGACGGACAUGGUCCUAACCACGCAGCCAAGUCCUAAGUCAACAGAUCUUCUGUUGAUAUGGAUGCAGUUCACAGACUAAAUGUCGGUCGGGGAAGAUGUAUUCUUCUCAUAAGAUAUAGUCGGACCUCUCCUUAAUGGGAGCUAGCGGAUGAAGUGAUGCAACACUGGAGCCGCUGGGAACUAAUUUGUAUGCGAAAGUAUAUUGAUUAGUUUUGGAGUACUCGUGGUCG
How it was run: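 Colonies from six replicate transformations of E. coli BL21(DE3) were pooled and amplicon-sequenced on an Illumina HiSeq 2500. The library placed an intron with all eight P1ex-region nucleotides randomised inside the knt kanamycin-resistance gene on pET-22b(+), and cells grew overnight at 37°C or 30°C on LB agar with or without 25 μg/mL kanamycin (plus 100 μg/mL carbenicillin, 50 μM IPTG, 0.2% rhamnose). Fitness is the DiMSum error-weighted combination of wild-type-normalised replicate fold changes, kanamycin versus none.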

Sequence | self-splicing fitness (ln) (30 °C) | self-splicing fitness (ln) (37 °C)
UAACAGCAAUAUUACGAUAU | -2.28 ± 0.18 | -1.28 ± 0.2
GCGUAGCAAUAUUACGCCAA | – | -2.7 ± 0.48
UUCAAGCAAUAUUACGGCCU | -2.42 ± 0.17 | -0.267 ± 0.15
CGUCAGCAAUAUUACGCUGA | -2.3 ± 0.3 | -1.89 ± 0.33
UGAUAGCAAUAUUACGGCAU | -2.68 ± 0.13 | -1.41 ± 0.13
AAAAAGCAAUAUUACGGACU | -0.0499 ± 0.067 | -0.0238 ± 0.083
ACCAAGCAAUAUUACGGCAG | -3.19 ± 0.16 | -1.9 ± 0.17
UGCGAGCAAUAUUACGAUAG | -3.32 ± 0.27 | -1.7 ± 0.38
AGGCAGCAAUAUUACGGGAA | -3.59 ± 0.23 | -2.42 ± 0.18
CUAAAGCAAUAUUACGGCGU | -3.68 ± 0.23 | -3.05 ± 0.35
AGCCAGCAAUAUUACGUACU | -0.0754 ± 0.072 | 0.219 ± 0.086
CUUAAGCAAUAUUACGACGG | -0.508 ± 0.1 | -0.291 ± 0.13
GGGGAGCAAUAUUACGCUAG | -2.63 ± 0.27 | –
GGCCAGCAAUAUUACGAACC | 0.576 ± 0.31 | -0.0497 ± 0.4
UAUAAGCAAUAUUACGGAAG | -2.72 ± 0.18 | -2.05 ± 0.18
UAUAAGCAAUAUUACGUGUC | -3.33 ± 0.25 | -1.5 ± 0.34
GAGUAGCAAUAUUACGGCCC | -0.847 ± 0.18 | 0.0966 ± 0.35
CUACAGCAAUAUUACGGGCC | – | -3.03 ± 0.47
CAAGAGCAAUAUUACGCUGA | -2.97 ± 0.19 | -2.08 ± 0.21
UCAGAGCAAUAUUACGAGGA | -2.47 ± 0.15 | -1.83 ± 0.16

Sequence | self-splicing fitness (ln) (30 °C) | self-splicing fitness (ln) (37 °C)
GUGUAGCAAUAUUACGGACA | -0.685 ± 0.15 | -1.11 ± 0.18
GUUAAGCAAUAUUACGCAGA | -2.33 ± 0.14 | -2.85 ± 0.14
CUUUAGCAAUAUUACGCUGG | -3.05 ± 0.3 | -1.99 ± 0.3
UCACAGCAAUAUUACGCGAA | -1.74 ± 0.086 | -0.538 ± 0.091
CGAAAGCAAUAUUACGCAGG | -2.16 ± 0.091 | -1.4 ± 0.093
AUAGAGCAAUAUUACGUUUA | -0.804 ± 0.13 | -0.629 ± 0.14
UAUAAGCAAUAUUACGUAAA | -2.23 ± 0.12 | -0.632 ± 0.14
ACUGAGCAAUAUUACGCCCA | -2.64 ± 0.43 | -2.15 ± 0.28
UUUGAGCAAUAUUACGACAU | -3.673 ± 0.034 | -2.43 ± 0.043
GAAUAGCAAUAUUACGUGCU | -2.04 ± 0.14 | -0.626 ± 0.12
AUGGAGCAAUAUUACGGGAA | -2.71 ± 0.2 | -2.33 ± 0.17
CUAGAGCAAUAUUACGUAUC | – | -1.7 ± 0.26
ACUGAGCAAUAUUACGGUAA | -2.81 ± 0.27 | -2.8 ± 0.34
AUGUAGCAAUAUUACGAUAC | -3.33 ± 0.28 | -1.82 ± 0.21
AAAAAGCAAUAUUACGCUGU | -2.69 ± 0.13 | -1.69 ± 0.11
AUUCAGCAAUAUUACGUUUA | -1.18 ± 0.12 | -0.911 ± 0.11
UCUGAGCAAUAUUACGAUGA | -0.887 ± 0.12 | 0.0454 ± 0.18
CGGUAGCAAUAUUACGUCGG | -0.5 ± 0.095 | 0.638 ± 0.12
AACGAGCAAUAUUACGGUUA | -1.84 ± 0.18 | -0.413 ± 0.15
